# Assays:
# Aβ1-42 library peptide 9 = assay: peptide library ELISA, Ab 10 µg/ml
# [1] = target: Aβ1-42 library peptide 26; assay: peptide library ELISA, Ab 10 µg/ml
# [2] = target: Aβ1-42 library peptide 18; assay: peptide library ELISA, Ab 10 µg/ml
# Aβ1-42 library peptide 4 = assay: peptide library ELISA, Ab 10 µg/ml
# Aβ1-42 library peptide 6 = assay: peptide library ELISA, Ab 10 µg/ml
# [3] = target: Aβ1-42 library peptide 32; assay: peptide library ELISA, Ab 10 µg/ml
# [4] = target: Aβ1-42 library peptide 27; assay: peptide library ELISA, Ab 10 µg/ml
# [5] = target: Aβ1-42 library peptide 19; assay: peptide library ELISA, Ab 10 µg/ml
# Aβ1-42 library peptide 3 = assay: peptide library ELISA, Ab 10 µg/ml
# [6] = target: Aβ1-42 library peptide 28; assay: peptide library ELISA, Ab 10 µg/ml
# [7] = target: Aβ1-42 library peptide 10; assay: peptide library ELISA, Ab 10 µg/ml
# Aβ1-42 library peptide 1 = assay: peptide library ELISA, Ab 10 µg/ml
# [8] = target: Aβ1-42 library peptide 17; assay: peptide library ELISA, Ab 10 µg/ml
# [9] = target: Aβ1-42 library peptide 24; assay: peptide library ELISA, Ab 10 µg/ml
# [10] = target: Aβ1-42 library peptide 30; assay: peptide library ELISA, Ab 10 µg/ml
# [11] = target: Aβ1-42 library peptide 14; assay: peptide library ELISA, Ab 10 µg/ml
# [12] = target: Aβ1-42 library peptide 23; assay: peptide library ELISA, Ab 10 µg/ml
# Aβ1-42 library peptide 8 = assay: peptide library ELISA, Ab 10 µg/ml
# [13] = target: Aβ1-42 library peptide 22; assay: peptide library ELISA, Ab 10 µg/ml
# [14] = target: Aβ1-42 library peptide 12; assay: peptide library ELISA, Ab 10 µg/ml
# [15] = target: Aβ1-42 library peptide 16; assay: peptide library ELISA, Ab 10 µg/ml
# [16] = target: Aβ1-42 library peptide 31; assay: peptide library ELISA, Ab 10 µg/ml
# [17] = target: Aβ1-42 library peptide 25; assay: peptide library ELISA, Ab 10 µg/ml
# Aβ1-42 library peptide 5 = assay: peptide library ELISA, Ab 10 µg/ml
# Aβ1-42 library peptide 2 = assay: peptide library ELISA, Ab 10 µg/ml
# [18] = target: Aβ1-42 library peptide 20; assay: peptide library ELISA, Ab 10 µg/ml
# [19] = target: Aβ1-42 library peptide 13; assay: peptide library ELISA, Ab 10 µg/ml
# [20] = target: Aβ1-42 library peptide 33; assay: peptide library ELISA, Ab 10 µg/ml
# [21] = target: Aβ1-42 library peptide 29; assay: peptide library ELISA, Ab 10 µg/ml
# [22] = target: Aβ1-42 library peptide 11; assay: peptide library ELISA, Ab 10 µg/ml
# [23] = target: Aβ1-42 library peptide 21; assay: peptide library ELISA, Ab 10 µg/ml
# Aβ1-42 library peptide 7 = assay: peptide library ELISA, Ab 10 µg/ml
# [24] = target: Aβ1-42 library peptide 15; assay: peptide library ELISA, Ab 10 µg/ml
# [25] = target: Aβ1-42 (low-molecular weight, HFIP-treated, Th-T aggregation assay); assay: cell-based or functional assay
# Aβ1-42 (low-molecular weight, HFIP-treated, Th-T aggregation assay), sequence (peptide, as listed by the source, form in doubt): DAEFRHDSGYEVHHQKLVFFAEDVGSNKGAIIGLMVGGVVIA
# [26] = target: pre-aggregated Aβ1-42 (Th-T disaggregation assay); assay: cell-based or functional assay
# pre-aggregated Aβ1-42 (Th-T disaggregation assay), sequence (peptide, as listed by the source, form in doubt): as above
binder,measurement,setting,value
"ACI-11-Ab-9 (antibody, V domains shown, also called FG1F9E4) VH: QVQLQQSDAELVKPGASVKISCKVSGYTFTDHTIHWMKQRPEQGLEWIGYIYPRDGSTKYNEKFKGKATLTADKSSSTAYMQLNSLTSEDSAVYFCARDYGYAFDYWGQGTTLTVSS VL: QAVVTQESALTTSPGGTVILTCRSSTGAVTTSNYANWVQEKPDHLFTGLIGGTSNRAPGVPVRFSGSLIGDKAALTITGAQTEDDAMYFCALWYSTHYVFGGGTKVTVL",O.D.,Aβ1-42 library peptide 9,0.11 O.D.
same,O.D.,[1],0.12 O.D.
same,O.D.,[2],0.11 O.D.
same,O.D.,Aβ1-42 library peptide 4,0.11 O.D.
same,O.D.,Aβ1-42 library peptide 6,0.11 O.D.
same,O.D.,[3],0.12 O.D.
same,O.D.,[4],0.13 O.D.
same,O.D.,[5],0.1 O.D.
same,O.D.,Aβ1-42 library peptide 3,0.12 O.D.
same,O.D.,[6],0.12 O.D.
same,O.D.,[7],0.13 O.D.
same,O.D.,Aβ1-42 library peptide 1,0.1 O.D.
same,O.D.,[8],0.13 O.D.
same,O.D.,[9],0.1 O.D.
same,O.D.,[10],0.11 O.D.
same,O.D.,[11],0.16 O.D.
same,O.D.,[12],0.11 O.D.
same,O.D.,Aβ1-42 library peptide 8,0.11 O.D.
same,O.D.,[13],0.1 O.D.
same,O.D.,[14],0.24 O.D.
same,O.D.,[15],0.14 O.D.
same,O.D.,[16],0.12 O.D.
same,O.D.,[17],0.11 O.D.
same,O.D.,Aβ1-42 library peptide 5,0.11 O.D.
same,O.D.,Aβ1-42 library peptide 2,0.1 O.D.
same,O.D.,[18],0.1 O.D.
same,O.D.,[19],0.17 O.D.
same,O.D.,[20],0.11 O.D.
same,O.D.,[21],0.2 O.D.
same,O.D.,[22],0.11 O.D.
same,O.D.,[23],0.1 O.D.
same,O.D.,Aβ1-42 library peptide 7,0.11 O.D.
same,O.D.,[24],0.14 O.D.
same,"inhibition of Aβ1-42 aggregation (Th-T fluorescence), molar ratio 1:10",[25],69%
same,"inhibition of Aβ1-42 aggregation (Th-T fluorescence), molar ratio 1:100",[25],34%
same,"disaggregation of pre-aggregated Aβ1-42 (Th-T fluorescence), molar ratio 1:10",[26],52%
same,"disaggregation of pre-aggregated Aβ1-42 (Th-T fluorescence), molar ratio 1:100",[26],22%
"ACI-12-Ab-11 (antibody, V domains shown, also called FK2A6A6) VH: QVQLQQSDAELVKPGASVKISCKVSGYTFTDHTIHWMKQRPEQGLEWIGYIYPRDGSTKYNEKFKGKATLTADKSSSTAYMQLNSLTSEDSAVYFCARDYGYAFDYWGQGTTLTVSS VL: QAVVTQESALTTSPGGTVILTCRSSTGAVTTSNYANWVQEKPDHLFTGLIGGTSNRAPGVPVRFSGSLIGDKAALTITGAQTEDDAMYFCALWYSTHYVFGGGTKVTVL",O.D.,Aβ1-42 library peptide 9,0.1 O.D.
same,O.D.,[1],0.12 O.D.
same,O.D.,[2],0.1 O.D.
same,O.D.,Aβ1-42 library peptide 4,0.1 O.D.
same,O.D.,Aβ1-42 library peptide 6,0.1 O.D.
same,O.D.,[3],0.11 O.D.
same,O.D.,[4],0.12 O.D.
same,O.D.,[5],0.1 O.D.
same,O.D.,Aβ1-42 library peptide 3,0.11 O.D.
same,O.D.,[6],0.11 O.D.
same,O.D.,[7],0.1 O.D.
same,O.D.,Aβ1-42 library peptide 1,0.1 O.D.
same,O.D.,[8],0.12 O.D.
same,O.D.,[9],0.1 O.D.
same,O.D.,[10],0.11 O.D.
same,O.D.,[11],0.12 O.D.
same,O.D.,[12],0.1 O.D.
same,O.D.,Aβ1-42 library peptide 8,0.1 O.D.
same,O.D.,[13],0.1 O.D.
same,O.D.,[14],0.21 O.D.
same,O.D.,[15],0.14 O.D.
same,O.D.,[16],0.11 O.D.
same,O.D.,[17],0.11 O.D.
same,O.D.,Aβ1-42 library peptide 5,0.1 O.D.
same,O.D.,Aβ1-42 library peptide 2,0.1 O.D.
same,O.D.,[18],0.1 O.D.
same,O.D.,[19],0.15 O.D.
same,O.D.,[20],0.11 O.D.
same,O.D.,[21],0.11 O.D.
same,O.D.,[22],0.11 O.D.
same,O.D.,[23],0.09 O.D.
same,O.D.,Aβ1-42 library peptide 7,0.1 O.D.
same,O.D.,[24],0.1 O.D.
same,"inhibition of Aβ1-42 aggregation (Th-T fluorescence), molar ratio 1:10",[25],66%
same,"inhibition of Aβ1-42 aggregation (Th-T fluorescence), molar ratio 1:100",[25],30%
same,"disaggregation of pre-aggregated Aβ1-42 (Th-T fluorescence), molar ratio 1:10",[26],54%
same,"disaggregation of pre-aggregated Aβ1-42 (Th-T fluorescence), molar ratio 1:100",[26],18%
